Reference: publication PMC6420597, “The MurG glycosyltransferase provides an oligomeric scaffold for the cytoplasmic steps of peptidoglycan biosynthesis in the human pathogen Bordetella pertussis” (Scientific Reports, 2019)

What was measured:
[1] = biological target: MurE-MurF bifunctional fusion protein from Bordetella pertussis, His-tagged (Bordetella pertussis (strain ATCC 9797/DSM No 5571))
[2] = biological target: MurE-MurF bifunctional fusion protein from Bordetella pertussis, His-tagged (Bordetella pertussis (strain ATCC 9797/DSM No 5571)); assay: AUC; sedimentation velocity, dimer pool of MurE-MurF at 40, 10 and 2.5 μM, 42,000 rpm, 20 °C
[3] = biological target: MurE-MurF bifunctional fusion protein from Bordetella pertussis, His-tagged (Bordetella pertussis (strain ATCC 9797/DSM No 5571)); assay: SEC-MALS; larger SEC form (dimer pool) of MurE-MurF; 25 mM HEPES pH 7.5, 300 mM NaCl, 10 mM MgCl2, 5% glycerol; room temperature
[4] = biological target: the molecule itself; assay: AUC; sedimentation velocity, MurG 2 mg/ml in buffer with DM (1.2 x CMC), 42,000 rpm, 20 °C
[5] = biological target: FITC-labelled MurE-MurF fusion protein from Bordetella pertussis (Bordetella pertussis (strain ATCC 9797/DSM No 5571)); assay: MST; FITC-labelled MurE-MurF at a fixed concentration, MurG purified in detergent titrated; 25 mM HEPES pH 7.5, 150 mM NaCl, 10 mM MgCl2, 5% glycerol, 0.17% w/v DM; 22 °C; triplicate
[6] = biological target: FITC-labelled MurE-MurF fusion protein from Bordetella pertussis (Bordetella pertussis (strain ATCC 9797/DSM No 5571)); assay: MST; FITC-labelled MurE-MurF at a fixed concentration, oligomeric MurG (purified without detergent) titrated from 1 nM to 37 μM; 25 mM HEPES pH 7.5, 150 mM NaCl, 10 mM MgCl2, 5% glycerol, no detergent; apparent KD, no clear plateau

| Molecule | specific activity of the MurF-catalysed reaction (D-Ala-D-Ala-adding) of the dimeric form of MurE-MurF; the monomeric form gave 14.1 µmol/min/mg [1] | stoichiometry N [2] | stoichiometry N [3] | stoichiometry N [4] | Kd [5] | Kd [6] |
| --- | --- | --- | --- | --- | --- | --- |
| MurE-MurF bifunctional fusion protein from Bordetella pertussis, His-tagged (enzyme) | 7.5 µmol/min/mg | 2 | 2 | – | – | – |
| MurG glycosyltransferase from Bordetella pertussis, N-terminal Strep-tagged (enzyme, UniProt Q7VUQ3 1-357, looked up, MurG, Bordetella pertussis strain ATCC 9797/DSM No 5571; printed as a 357-residue protein; the murG gene was cloned into a modified pET30b; The Strep-tag is TEV-cleavable, but no cleavage is described; It is not clear whether the 357 residues include the tag; The oligomeric state depends on detergent: dimer in DDM/DM, tetramers and higher without; The discussion gives a mass of 50 kDa; also …) MSAPTILIMAGGTGGHIMPGLAVAEVLRERGWRVLWLGNPDKMEGRLVPPRGIELVPLRFQGVRGRGAAALLKLPFLLARACAQAWRRLADIRPDVVLGMGGYVAFPGGVMAALRRTPLVVHEQNAVAGTANRWLARLARRVLSGFPGVLPRGEALGNPVRADLCALPEPAERYAGRSGALRVLVVGGSLGAHALNTTVPQALALLPEQARPQVVHQAGEQHLPALQQAYAQAGVQADCRAFIDDMADAMAQADLLICRAGAMTVSEVAAAGVAALFVPFPHAIDDHQTANARFLSDAQAAWLQPQASLTPQWLAQWLGQRTRQELQAVAGRARTHALPRAAAHIADVCEQAARRAS | – | – | – | 2 | 570 nM | 970 nM |
